In US20240400703A1 (Genmab, published 2024):

Legend:
[1] = molecular target: T1, recombinant human OX40 fused to a His-tag (Acro Biosystems, cat. no. OX0-H5224) (human, UniProt P43489 29-214); assay: BLI cross-block; first Ab (competitor): IgG1-CD134-Hu106
T1 construct: bought protein; also called sOX40; soluble OX40; not shown: His-tag
T1 sequence: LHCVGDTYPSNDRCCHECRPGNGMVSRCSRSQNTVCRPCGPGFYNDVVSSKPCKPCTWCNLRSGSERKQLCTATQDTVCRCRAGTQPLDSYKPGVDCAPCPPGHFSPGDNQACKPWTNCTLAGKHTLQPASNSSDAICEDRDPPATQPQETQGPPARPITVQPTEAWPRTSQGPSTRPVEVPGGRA
Method: (§1) Amine Reactive 2nd Generation (AR2G) biosensors (Sartorius, cat. no. 18-5092) were activated for 300 s with a solution of 20 mM EDC (N-(3-Dimethylaminopropyl)-N-ethylcarbodiimide hydrochloride; Sartorius, cat. no. 18-1033) and 10 mM s-NHS (N-hydroxysulfosuccinimide sodium salt; Sartorius, cat. no. 18-1067). […] After a baseline measurement in Sample Diluent (Sartorius, cat. no. 18-1104) for 50 s, the AR2G biosensors containing immobilized antibody were loaded for 300 s with human OX40 fused to a His-tag (100 nM diluted in Sample Diluent; Acro Biosystems, cat. no. OX0-H5224). The association (300 s) of a second antibody (10 μg/mL in Sample Diluent) was determined. Sensors were regenerated by three cycles of exposure to 10 mM Glycine (Sigma-Aldrich, cat. no. 15527) buffer pH 2.5 for 5 s followed by neutralization in Sample Diluent for 5 s.
(§2) Data were acquired using Data Acquisition Software v12.0 (Sartorius) and analyzed with Data Analysis HT Software v12.0 (Sartorius). Data traces were corrected by subtraction of a reference curve (Sample Diluent instead of second antibody) in order to correct for the dissociation of antigen from the immobilized first antibody. The Y-axis was aligned to the start of the association step and Savitzky-Golay filtering was applied. The corrected association responses of the second antibodies were plotted in a matrix format (Table 5). Responses ≥0.1 nm were considered non-blocking antibody pairs, while responses <0.1 were considered blocking antibody pairs.

[2] = molecular target: T1, recombinant human OX40 fused to a …; assay: BLI cross-block; first Ab (competitor): IgG1-CD134-007
Method: as §1, §2

[3] = molecular target: T1, recombinant human OX40 fused to a …; assay: BLI cross-block; first Ab (competitor): IgG1-CD134-003
Method: (§3) Experiments were carried out while shaking at 1,000 RPM and at 30° C.
as §1, §2

[4] = molecular target: T1, recombinant human OX40 fused to a …; assay: BLI cross-block; first Ab (competitor): IgG1-CD134-003-HC6LC2-RR
Method: as §1, §2

[5] = molecular target: T1, recombinant human OX40 fused to a …; assay: BLI cross-block; first Ab (competitor): IgG1-CD134-INCAGN1949
Method: as §3, §1, §2

[6] = molecular target: T1, recombinant human OX40 fused to a …; assay: BLI cross-block; first Ab (competitor): IgG1-CD134-MEDI0562
Method: as §1, §2

[7] = molecular target: T1, recombinant human OX40 fused to a …; assay: BLI cross-block; first Ab (competitor): IgG1-CD134-012
Method: as §3, §1, §2

[8] = molecular target: T1, recombinant human OX40 fused to a …; assay: BLI cross-block; first Ab (competitor): IgG1-CD134-SF2
Method: as §1, §2

[9] = molecular target: T2, mouse OX40 expressed on ExpiCHO-S cells (mouse, UniProt P47741 20-272); assay: flow cytometry, transfected ExpiCHO-S cells, gMFI (PE)
T2 construct: full-length entry; also called OX40mm; wild-type mouse OX40
T2 sequence: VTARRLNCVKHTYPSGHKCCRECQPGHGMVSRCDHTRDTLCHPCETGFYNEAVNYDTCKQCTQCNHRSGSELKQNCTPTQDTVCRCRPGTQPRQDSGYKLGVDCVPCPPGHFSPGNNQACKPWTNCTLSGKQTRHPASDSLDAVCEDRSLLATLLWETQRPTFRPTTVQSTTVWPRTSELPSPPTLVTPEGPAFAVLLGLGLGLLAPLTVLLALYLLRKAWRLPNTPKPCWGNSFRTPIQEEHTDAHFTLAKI

B1: IgG1-CD134-012 (antibody)
heavy: not shown
light: DIVMTQTPASVEAAVGGTVTIKCQASENIYSSLAWYQQKPGQPPKLLIYRTSTLASGVPSRFKGSGSGTQFTLTISDLESDDAATYYCQSYYHNSGGGYDYGFGGGTEVVAKRTVAAPSVFIFPPSDEQLKSGTASVVCLLNNFYPREAKVQWKVDNALQSGNSQESVTEQDSKDSTYSLSSTLTLSKADYEKHKVYACEVTHQGLSSPVTKSFNRGEC
notes: rabbit-human chimeric IgG1
- association response [1]: 0.51 nm
- association response [2]: 0.82 nm
- association response [3]: 0 nm
- association response [4]: 0.03 nm
- association response [5]: 0.07 nm
- association response [6]: 0.23 nm
- association response [7]: 0 nm
- association response [8]: 0.14 nm

B2: IgG1-CD134-003-HC6LC2-P329R-E345R (antibody)
heavy: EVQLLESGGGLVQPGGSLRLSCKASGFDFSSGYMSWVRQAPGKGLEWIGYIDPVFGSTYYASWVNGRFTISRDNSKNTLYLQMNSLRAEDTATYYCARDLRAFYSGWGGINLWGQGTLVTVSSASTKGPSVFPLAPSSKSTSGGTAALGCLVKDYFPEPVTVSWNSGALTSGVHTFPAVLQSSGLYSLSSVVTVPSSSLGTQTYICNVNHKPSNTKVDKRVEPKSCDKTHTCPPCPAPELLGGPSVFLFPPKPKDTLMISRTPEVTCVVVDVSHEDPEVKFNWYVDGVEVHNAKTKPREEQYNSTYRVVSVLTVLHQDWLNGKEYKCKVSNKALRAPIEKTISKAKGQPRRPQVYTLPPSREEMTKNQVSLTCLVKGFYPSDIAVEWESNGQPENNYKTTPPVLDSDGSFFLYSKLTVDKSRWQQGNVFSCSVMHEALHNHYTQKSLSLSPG
light: AAVLTQSPSSLSASVGDRVTITCQSSQIVVNNNFLSWYQQKPGKAPKLLIYDASNLASGVPDRFSGSGSGTDFTFTISSLQPEDIATYYCLGGYDDDAENAFGGGTKVEIKRTVAAPSVFIFPPSDEQLKSGTASVVCLLNNFYPREAKVQWKVDNALQSGNSQESVTEQDSKDSTYSLSSTLTLSKADYEKHKVYACEVTHQGLSSPVTKSFNRGEC
notes: humanized; human IgG1 with P329R and E345R (Eu numbering), kappa; also called IgG1-CD134-003-HC6LC2-RR
- association response [1]: 0.74 nm
- association response [2]: -0.04 nm
- association response [3]: 0.04 nm
- association response [4]: 0 nm
- binding result [9]: no binding (tested: 50 µg/mL)
- association response [5]: 0.19 nm
- association response [6]: 0.34 nm
- association response [7]: -0.02 nm
- association response [8]: 0.22 nm

B3: IgG1-CD134-003 (antibody)
heavy: not shown
light: AAVLTQTPSPVSAAVGGTVTIKCQSSQIVVNNNFLSWYQQKPGQPPKLLIYDASNLASGVPDRFSGSGSGTQFTLTISGVQSDDAATYYCLGGYDDDAENAFGGGTEVVVQRTVAAPSVFIFPPSDEQLKSGTASVVCLLNNFYPREAKVQWKVDNALQSGNSQESVTEQDSKDSTYSLSSTLTLSKADYEKHKVYACEVTHQGLSSPVTKSFNRGEC
notes: rabbit-human chimeric IgG1, wild-type Fc; also called parental chimeric antibody
- association response [1]: 0.64 nm
- association response [2]: -0.07 nm
- association response [3]: 0.02 nm
- association response [4]: -0.03 nm
- association response [5]: 0.15 nm
- association response [6]: 0.3 nm
- association response [7]: -0.01 nm
- association response [8]: 0.21 nm

B4: IgG1-CD134-007 (antibody)
heavy: not shown
light: AQVLTQTPSPVSAAVGGTVTISCQSSESVWNNNWLAWYQQKPGQPPNLLIYEASTLASGVSSRFKGSGSGTQFTLTVSEVQSDDAATYYCQGGYYDSSPIWTFGGGTEVVVKRTVAAPSVFIFPPSDEQLKSGTASVVCLLNNFYPREAKVQWKVDNALQSGNSQESVTEQDSKDSTYSLSSTLTLSKADYEKHKVYACEVTHQGLSSPVTKSFNRGEC
notes: rabbit-human chimeric IgG1
- association response [1]: 0 nm
- association response [2]: 0.01 nm
- association response [3]: -0.02 nm
- association response [4]: -0.07 nm
- association response [5]: 0.06 nm
- association response [6]: 0.32 nm
- association response [7]: 0.8 nm
- association response [8]: 0.22 nm
